# Target: wild-type AC fused to GFP (AC-GFP), encoded by plasmid pAC0-Gfp (Bordetella pertussis | not stated) (UniProt P0DKX7)
# Assay: two-hybrid
substance,measurement,value
"calmodulin (CaM) with a 6-histidine tag at its N-terminus and a tetra-cysteine tag at its C-terminus, encoded by plasmid pTCam (from UniProt P0DP23 1-149) (natural protein)",cAMP,> 250 nmol/mg
same,ß gal (Rel. Units),106 Rel. Units
